Reference: PMC5695019, “Expression, Purification, and Characterization of (R)-Sulfolactate Dehydrogenase (ComC) from the Rumen Methanogen Methanobrevibacter millerae SM9” (Archaea, 2017)

Legend:
purified protein [1] = substrate: NC(=O)C1=CN([C@@H]2O[C@H](COP(=O)(O)OP(=O)(O)OC[C@H]3O[C@@H](n4cnc5c(N)ncnc54)[C@H](O)[C@@H]3O)[C@@H](O)[C@H]2O)C=CC1; test: purified protein; type: biochemical, Methanobrevibacter millerae; conditions: reduction reaction, 500 μM sulfopyruvate, 400 mM KCl, 50 mM BTP pH 6.5, 37°C, varied: cofactor
purified protein [2] = substrate: O=C(O)C(=O)CS(=O)(=O)O; test: purified protein; type: biochemical, Methanobrevibacter millerae; conditions: reduction reaction, 400 μM NADH, 400 mM KCl, 50 mM BTP pH 6.5, 37°C

B1: ComC ((R)-sulfolactate dehydrogenase) (Methanobrevibacter millerae) (protein)
chain: MKIMKDNEIALVKEILKKLGASEEDCELVAEATIDADLKGFTSHGLGRFPQYLISIEAGTINLEDNITIEKETPAIALINGNSGFGQAVSYKAMQIAIKKAKEVGIGCVGVHNTNHFGVTGFYSDLALRENVIGMVIANTDPAIAPLGGKEALIGTNPIAIGIPSETYITVDMATSVTARGKIIESRRKGLDLPEGWALDKDGNPTTDPEAALDGGSILPFGGFKGYALALMVEILTGPLVQAGYGTGVTGTASPTKDCTKGDLYIAIDPSKFGDFGDFVANTEDFVSQVRATGETVAIPGDLEVKRIAEAEENGIEIDAKLYEQLKGICDDLDIDIDSYLED
notes: full-length, His-tagged (pET151D TOPO, E. coli Rosetta 2), tag kept, 376 residues and 40104 Da with tag; dimer (75 kDa by gel filtration); primers encode N-terminus MKIMKDNE and C-terminus DIDSYLED
Km (purified protein [1]): 55.1 ± 7.6 µM
Vmax (purified protein [1]): 73.1 µmol/min/mg
kcat (purified protein [1]): 48.9 ± 2.2 s⁻¹
Km (purified protein [2]): 196 ± 71 µM
Vmax (purified protein [2]): 93.9 µmol/min/mg
kcat (purified protein [2]): 62.8 ± 9.7 s⁻¹
